This is an account of results in the nanobody polyreactivity screen of Harvey et al. (2022).

This series can be described thus: yeast display, Sf9 membrane polyspecificity reagent, FACS + sequencing; frameworks hold sequencing errors. In short, it runs like this: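 Nanobodies came from a synthetic yeast display library in Saccharomyces cerevisiae BJ5465, induced with galactose for 36–48 hours and stained for 1 hour at 4 °C with 10% biotinylated, detergent-solubilized Sf9 membrane reagent. Cells were enriched on streptavidin microbeads and then FACS-sorted, with low and high (top ~1%) gates set on anti-HA fluorescence for expression and streptavidin fluorescence for reagent binding. Each polyreactivity label reflects the gate a clone came from. Genes were amplified by colony PCR, sequenced by MiSeq 2 × 250 and filtered by CDR length.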
In the case of “QVQLQESGRRPGAAGGSPRMSCAASGNIFWVAVMGRYRQAPGKERELVASIGFGCTTYYADSVKCRFTISRDNAKNTVYLQMISLKPEDTAVYYCAAPHYDWGELDYWGQGTQVPVSS”, the “polyreactivity (PSR sort gate)” value is “low polyreactivity”.
As for “QVQLQESGRRPGAAGGSPRMSCAASGNIFWVAVMGRYRQEPGQERELVASIGFGCTTYYADSVKCRFTISRDNAKNTVYLQMISLKPEDTAVYYCAAPHYDWGELDYWGQGTQVPVSS”, the “polyreactivity (PSR sort gate)” value is recorded as “low polyreactivity”.
As to “QVQLQESGSGLVQAGGSLRLGCAASGNISDAGYMGWYRQAPGKEREFVAAIAAGSNTNYADSVKGRFTISRDNAKNTVYLQLNSLKPEVTAVFYCAVASYARVQYEYWGQGTQVTVNS”, the “polyreactivity (PSR sort gate)” value is reported as “low polyreactivity”.
As for “QVQLQESGSGLVQAGGSLRLSCAASGYISLGDNMGWYRQAPGKDREFGATISVGGITYYVDSVKGRFTISRDIAKNTVYLQMNSLTPEDTAVYYCAALEIYYFRYYYWGQGTQVTVSS”, the “polyreactivity (PSR sort gate)” value is “low polyreactivity”.
“QVQLQESGSGLVQAGGSLRLSSAASGNISHYNDMGWYRQAPGKEREPVATINSGSITYYADSVKGRFTISRDNAKNTVYLQMNSLKPEDTAVYYCAVTQHGYFYLDYWGQGTQVTVSS”: the “polyreactivity (PSR sort gate)” value is reported as “high polyreactivity”.
Then “QVQLQESGVGLVQAGGSLGCAASGNISTRSEMGWYRQAPGKEREFVATINSGGITNYADSVKGRFTISRDNAKNTVYLRMNSLKPEDTAVYYREVYGYFSDPYDYWGQGTQVTVSS”, with “low polyreactivity”; and “QVQLQESGVGLVQAGGSLRLSCAASGTIFRISDMGSYRQAPGKEREFVAAITYGANTYYADSGKGRFTISRDNAKNTVYLQMNSLKPEDTAVYYWAVPPVKETILDYWGQGTQVTVSS”, with “low polyreactivity”; and “QVQLQESRGGLLQAGGSLCLSCAASGNIIFDGDMRWYRQAPGKEREFVAAINPGGSAYYADSVKGRLPLAAITHTVYLQLNSLNPPDTAVYYCAAKLFDVYGYYYWGQGTHVTVSS”, with “low polyreactivity”.
Then “QVQLQESRGGLVQAGGSLCLSCAASGTIFIDGDMGWYRQAPGKEREFVAAIKPGGSAYYADSVKGRLPLAAITHTVYLQMNSLKPEDTAVYYCAAKLFDVYGYYYWGQGTQVTLSS”, with “low polyreactivity”; and “QVQLQESSGGLVQAGGSLRMSCAASGTIFNFHIMGWYRQAPGKEREFVAAISYGTSTYYADSVKGRFTISRDNAKNTVYLQMNSQKPEDTAVYYCAVFDYLEVYCWYWGQGTQVTVSS”, with “low polyreactivity”; and “QVQLQESVGGLVQACGSLRLSCAASGYIFSHQYMGWYRQAPGKERELVASISPGATTNYADSVKGRFTISRDNAKNTVYLQMNSLKPEDTAVYYYAVYQILDRRLSYWGQGTQVTVSC”, with “high polyreactivity”.
In the case of “QVQLQESVGGLVQAGGSLRLSCAASGNIFPTDRMGWYRQAPGKELEFVATISHGGSTNYADSVKGRFTISRDNAKNTVYLQMNSLKPEDTAVYYCAVWSLGRWRHYYWGQGTQVTVRS” it was “low polyreactivity”.
For the sequence “QVQLQESVGGLVQAGGSLRLSCPASGSIFKVVDMVLYRQAPAKEREFVATIGVGGNTYYADSVKGRFTISRDNAKNTVYLQMNSLKPEDTAVYFYAVVLGTSYRYTYWGQGTQVTVSS”, the “polyreactivity (PSR sort gate)” value is on record as “low polyreactivity”.
Then “QVQLQESVGGLVQAGGTLRLSCAGRGNIYTHQLYMGSYRQAPGKEIDFVAAINFGASPYYADSVKGRNTISRDNAKNTVYLLMNSLKPEDTAVYYCAADSAFYDEYQEDYWGQGTQVTLSS”, with “low polyreactivity”.
In the case of “QVQLQESVVGLEQAGGSLRLSCAASGNIFPTDRMGWYRQAPGKELEFVATISHGGSTNYADSVKGRFTISRVNAKNTVYLQLNSLKPEDTAVYYCAVWSLGRWRHYYWGQGTQVTVSS” it was “low polyreactivity”; in that of “QVQLQETGGGLVQAGGSLRQSCAASRSISPWSYMGRYRQAPGKEREFVASINAGTNTYYADSAKGRITISRDNAKNTVYLQMNSLKPEDTAAYYCAARYWNDYYFPYWGQGTEVTVSS”, “low polyreactivity”.
Take “QVQLQETGGGLVQVGGSQRLSCAASGNIFYNYAMGWYRHAQGKEREFDATINHGTSINDADSVKGRFTISRDNAKNTVYLQMNSLTPEDTAVYYCAADLSWTDNLFYWGQGTQETVSS”: the “polyreactivity (PSR sort gate)” value is listed as “low polyreactivity”.
For the sequence “QVQLQGSGGGLAQAGDSLRLSCAASGTIFSEYNNGLVSPGAGQRTRTCCRYWCWGNTYYADSAKGRFTTSRDNAKNTVYLQKNSLKPEDTAVYYCAFNRPYPSRHIYRGQGTQVTVSS”, the “polyreactivity (PSR sort gate)” value was “high polyreactivity”.
In the case of “QVQLQGSGGGLAQAGDSLRLSSEASGTIFSEYNNGLVSPGAGQRTRTCCRYWCWGNTYYPDSAKGRFTTSLDNAKNTVYLQKNSLKPEDTEVYYCAFNRPYPSRHIYRGQGTQVTVSS”, the “polyreactivity (PSR sort gate)” value is “high polyreactivity”.
In the case of “QVQLQVSGGDLVQAGGSLRLSCAASGTIYGLTAMGWYRLAPGKEREFVAAITDGGNTNYADSVKGRFTISRDNAINTVYLQMISLKPEDTAVYYCAVLFSDDAYYAYWGQGTQVTVSS” it was “low polyreactivity”; in that of “QVQLQVSGGGLVNAGGSLRLSCAASGNISPRDAMGWYLQAPGEERDLVASNAYSAITYYADGVTGRSTISRDNAKNTEYLQMNSLKPEDTEVYYCAVYQFTYPVFPAYWGQGTQVTVSS”, “low polyreactivity”.
Regarding “QVQLVASGGGLVQAGGSHRLSCAASGRIFYYYAMGWYRQAPGKERELVASINSGGSTYYADSVKGPFTISRDNAKHTVYFQMNSLKPEDTACYYCAAGFQLVKGSLSGRAAYYYWGQGTQVTVSS”, the “polyreactivity (PSR sort gate)” value is on record as “high polyreactivity”.
In the case of “QVQLVASGGGLVQAGGSLRLSCAASGRIFYAYAMGWYRQAPGKERELVAAITISASSTYYADSVKGRFTFSRDNAKNTVYLQMNSLKPEETAVFYCAAAYRRPWWYSYRYGYWGQGTQVTVSS” it was “high polyreactivity”; in that of “QVQLVASGGGLVQAGGSLRLSCAASGSIFARYALGWYSQAPGKEREWVAALRWSGGRTYYADSVKGRFTISRDNAKNTVYLQMNSLKPEDTAVDYCNAVIHRLGKTYGTNRVDYWGQGTQVTVSS”, “high polyreactivity”; in that of “QVQLVASGGGLVQAGGSLRLSCAASGSTFGSNAMGWYRQAPGKERELVAPINSGDSTSYADSVKGRFTISRDNAKNTVYLQMNSLKPEDTAVYYCATRYYTFVWRHDYWGQGTQVTVSS”, “low polyreactivity”.
Then “QVQLVASGGGLVQAGGSLRLSCAASGSTFPRYAMGWYRQAPWKERELVAAITTSGGSTYYADSVKGRFTISRDNAKNTVYLQMNRLKPEDTAVYYCAADYCYYLDAGYYWGQGTQVTVSS”, with “low polyreactivity”; and “QVQLVASGGGLVQAGGSLRLSCAASGYTLFRNAMGWYRQAPGKERELVAAISRSGARTYYADSVKGRFTISRDNAKNTVYLQMNSLLPEDTAVYYCAAVIKWTKDDYWGQGTQVTVSS”, with “high polyreactivity”; and “QVQLVASGVGLVQAVGSLRLSCAASGITFQYYTMGWYRQAPGKERELVAAINWSGGSTYYADSVKGRFTISRDNAKNTVYLQMNSLKPEDTAVYYCNAVRFVEHDYWGQGTQVTVSS”, with “high polyreactivity”.
Turning to “QVQLVDSAGGLVQAGGTLRLSCADSGFTCSYYAMGWYRQAPGTERELVAAITSGGSTDYADSVKGRFTISRDNEKNTFYLQMHSLKPVDTAVFYCKITPYYAVFYYWGPGTQVTVSS”, the “polyreactivity (PSR sort gate)” value is “high polyreactivity”.
Then “QVQLVDSCGGLVQAGGSLRLSFAASGRIYGPYAMGWYRQAPGKERELVAAISFSGSGTYYADSVKGRFTISRDNAKNTVYLQMNSLKPEDTAVYYCAADRWAHTHRLGYWGQGTQVTVSS”, with “low polyreactivity”; and “QVQLVDSEVGLVQAGGSHRLSCSASARTFGRYAMGWYRQAPGKERELVATIRWRVGSTYYADSVKGSFTISRDNAKNTVYLQMNSLKPEDTAVFYCAARRYSSGLTDDYWGQGTQVTVSS”, with “high polyreactivity”.
“QVQLVDSGGALVQAGGSLRLRCAASGSTFFPNAKGWYRQAPGKERELVATIKYADSVKGRFTISRYNAKNTVYLQMNSLKPEDTAVYYCAGGGRVRYDYWGQGTQVTVSS”: the “polyreactivity (PSR sort gate)” value is “low polyreactivity”.
As for “QVQLVDSGGGIVQAGGSLRLSCAASGSTFGRKVMGWYRQAPGKERELVAAISFRGGSTYYADSVKGRFTISRDNAKNTVYLQMNSLKPEDTAVYYCARDYPTDAYDYWGQGTQVTVSS”, the “polyreactivity (PSR sort gate)” value is “low polyreactivity”.
In the case of “QVQLVDSGGGLDQAGGSLRLSCAASGYTFWLYAMGWYRQAPGKERELVAAISRGGITNYADSVKGRFTISRDNAKNTVYLQMNSLKPEDTAVYYCAAEYRGRGWRYGYDDWGQGTQVTVSS” it was “high polyreactivity”.
Then “QVQLVDSGGGLLQAGGSLRLSCAASGRIFVYNAMGWYRQAPGKERELVAAITRGGSTYYADSVKGRFTISRDNAKNTVDLQMNSLKPEDPAGYYCAADYAWVSIYDNVPSAPGYDDWGQGTQGTVSS”, with “low polyreactivity”; and “QVQLVDSGGGLLQAGGSLRLSFAASGRTLNHYVMGWYRQAPGKERELVAAISSGGSTYYADSVKGRFTISRDNAKNTVYLQMNSLKPEDTAVYYCNAGVVGDYPYWGLMDYWGQGTKVTVSS”, with “high polyreactivity”; and “QVQLVDSGGGLVQAGASLRLSCAASGRIITAYYAMGWYRQAPGKERELVASISSSGTSTYADSVKGRFTISRDYAKNTVYLQMKSLKPEDTAVYYCATRKQRTRRYDYGYWGQGTQVTVSS”, with “low polyreactivity”.
In the case of “QVQLVDSGGGLVQAGGILRLSCAASGRIFYYNTMGWSRQAPGKERELVARITYSGGRTYYADSVKGRFTISRDNAKNTVYLQMNSLKPEDTAVYYCAARRRTFYATSSAINGYDYWGQGTQVTVSS” it was “high polyreactivity”; in that of “QVQLVDSGGGLVQAGGRLRLSCAASGRTFRTNAMGWYRQAPGKERELVAAISRTGRTNYADSVKGRFTISRDNAKNTVYLQMNSLKPEDTAVYYCAADRVGWSGYRGDYWGQGTQVTVSS”, “high polyreactivity”; in that of “QVQLVDSGGGLVQAGGSHRLSCAASGSTFYGNLMGWYRQAPGRERELVAAISGGCSTNYADSVKGRFTISRDNEKNTVYLQLNSLKPEDTAVYYCAARGVIRVGNAARYVAGYYWGQGTQVTVSS”, “high polyreactivity”.
For “QVQLVDSGGGLVQAGGSLLLICAASGSTIPRNAMGWYRQAPGKERELVAAITSGGSTNYADSVKGRFTISRDNAKNTVYLQMNSLKPEDTAVYYCAADEQVNTQYVVWGDYWGHGTQVTVSS”, the “polyreactivity (PSR sort gate)” value was “low polyreactivity”.
